# Laboratory results as given in PMC9036127, “The nuclease activity of DNA2 promotes exonuclease 1–independent mismatch repair” (The Journal of Biological Chemistry, 2022).
# Molecular target: T1, Human MutSα (MSH2-MSH6 heterodimer) (human, UniProt P43246 1-934; P52701 1-1360)
# T1 construct: MSH2, human, subunit of MutSα; MSH6, human, subunit of MutSα
# Test: co-IP; purified proteins; MutSα- or MutLα-containing agarose beads (antibodies against MSH2 or MLH1), DNA2 in solution; for MutSα 30-μl mixtures with MutSα (3.4 pmol) and DNA2 (3.4 pmol); eluted fractions analyzed by immunoblotting
# Conditions: both partners purified
# T1 sequence (P43246 whole entry, chain 1 of 2): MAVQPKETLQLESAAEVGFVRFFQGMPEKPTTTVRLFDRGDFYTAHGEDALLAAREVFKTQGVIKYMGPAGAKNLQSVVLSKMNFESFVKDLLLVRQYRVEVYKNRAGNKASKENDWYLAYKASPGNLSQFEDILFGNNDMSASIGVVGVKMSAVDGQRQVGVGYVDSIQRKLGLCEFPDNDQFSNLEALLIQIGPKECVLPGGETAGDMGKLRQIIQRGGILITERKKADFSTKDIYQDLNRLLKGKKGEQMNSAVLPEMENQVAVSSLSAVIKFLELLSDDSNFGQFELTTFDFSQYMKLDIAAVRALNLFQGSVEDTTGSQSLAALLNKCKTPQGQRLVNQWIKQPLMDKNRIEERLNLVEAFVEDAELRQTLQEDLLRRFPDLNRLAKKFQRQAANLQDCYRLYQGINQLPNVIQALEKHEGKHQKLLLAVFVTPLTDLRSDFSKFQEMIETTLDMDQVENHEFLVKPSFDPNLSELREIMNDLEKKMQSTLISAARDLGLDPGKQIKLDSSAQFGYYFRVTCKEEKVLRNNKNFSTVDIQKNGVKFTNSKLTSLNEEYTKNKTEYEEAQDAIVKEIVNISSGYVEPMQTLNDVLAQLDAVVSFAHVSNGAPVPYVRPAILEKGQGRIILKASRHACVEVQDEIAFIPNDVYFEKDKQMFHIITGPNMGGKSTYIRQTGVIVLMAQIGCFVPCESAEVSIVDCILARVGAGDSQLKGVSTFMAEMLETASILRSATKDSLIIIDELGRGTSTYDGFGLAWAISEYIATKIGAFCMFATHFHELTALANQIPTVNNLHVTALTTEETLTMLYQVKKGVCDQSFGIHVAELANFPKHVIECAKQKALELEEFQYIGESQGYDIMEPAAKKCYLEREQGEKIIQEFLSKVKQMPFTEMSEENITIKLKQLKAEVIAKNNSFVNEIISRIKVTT
# T1 sequence (P52701 whole entry, chain 2 of 2): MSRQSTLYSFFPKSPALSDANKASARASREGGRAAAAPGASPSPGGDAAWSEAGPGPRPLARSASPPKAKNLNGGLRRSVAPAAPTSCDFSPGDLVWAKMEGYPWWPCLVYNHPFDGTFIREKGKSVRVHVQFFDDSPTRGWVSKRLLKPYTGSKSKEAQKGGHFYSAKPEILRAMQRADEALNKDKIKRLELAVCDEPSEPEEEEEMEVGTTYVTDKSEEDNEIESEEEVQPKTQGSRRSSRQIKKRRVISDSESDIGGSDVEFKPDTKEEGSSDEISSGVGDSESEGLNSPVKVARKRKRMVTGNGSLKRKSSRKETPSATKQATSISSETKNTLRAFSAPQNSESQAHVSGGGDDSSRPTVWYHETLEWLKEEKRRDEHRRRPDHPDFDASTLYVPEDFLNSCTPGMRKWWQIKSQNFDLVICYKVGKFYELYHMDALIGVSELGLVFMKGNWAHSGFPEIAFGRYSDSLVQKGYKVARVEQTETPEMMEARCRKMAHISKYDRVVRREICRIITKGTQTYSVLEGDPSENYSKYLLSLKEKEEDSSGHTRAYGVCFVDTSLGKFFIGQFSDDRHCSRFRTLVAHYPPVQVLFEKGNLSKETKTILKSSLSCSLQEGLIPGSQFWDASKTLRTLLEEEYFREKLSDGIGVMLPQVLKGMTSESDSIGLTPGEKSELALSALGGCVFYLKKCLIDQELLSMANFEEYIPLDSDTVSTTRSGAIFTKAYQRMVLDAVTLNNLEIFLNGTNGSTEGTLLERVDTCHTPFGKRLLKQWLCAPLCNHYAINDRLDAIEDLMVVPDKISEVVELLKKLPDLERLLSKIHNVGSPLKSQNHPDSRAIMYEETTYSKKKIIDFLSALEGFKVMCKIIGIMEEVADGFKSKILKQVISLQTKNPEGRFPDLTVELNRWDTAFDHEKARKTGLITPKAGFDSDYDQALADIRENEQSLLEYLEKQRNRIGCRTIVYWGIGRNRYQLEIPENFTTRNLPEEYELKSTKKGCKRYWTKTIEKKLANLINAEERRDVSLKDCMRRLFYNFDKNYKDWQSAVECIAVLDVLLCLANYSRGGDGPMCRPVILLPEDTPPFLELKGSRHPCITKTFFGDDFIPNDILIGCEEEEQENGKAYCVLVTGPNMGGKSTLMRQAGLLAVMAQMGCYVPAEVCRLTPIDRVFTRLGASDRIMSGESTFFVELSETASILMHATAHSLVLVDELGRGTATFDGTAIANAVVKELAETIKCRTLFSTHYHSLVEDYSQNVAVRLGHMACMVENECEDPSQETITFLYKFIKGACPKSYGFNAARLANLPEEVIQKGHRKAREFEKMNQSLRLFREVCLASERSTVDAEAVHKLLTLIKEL
binder,measurement,value
"Human DNA2 nuclease/helicase (enzyme, UniProt P51530 1-1060, looked up, DNA2 nuclease/helicase, human; wild type; source: insect Sf9 cells (baculovirus, codon-optimized gene), purified (α-Flag M2 beads, MonoS column)) MEQLNELELLMEKSFWEEAELPAELFQKKVVASFPRTVLSTGMDNRYLVLAVNTVQNKEGNCEKRLVITASQSLENKELCILRNDWCSVPVEPGDIIHLEGDCTSDTWIIDKDFGYLILYPDMLISGTSIASSIRCMRRAVLSETFRSSDPATRQMLIGTVLHEVFQKAINNSFAPEKLQELAFQTIQEIRHLKEMYRLNLSQDEIKQEVEDYLPSFCKWAGDFMHKNTSTDFPQMQLSLPSDNSKDNSTCNIEVVKPMDIEESIWSPRFGLKGKIDVTVGVKIHRGYKTKYKIMPLELKTGKESNSIEHRSQVVLYTLLSQERRADPEAGLLLYLKTGQMYPVPANHLDKRELLKLRNQMAFSLFHRISKSATRQKTQLASLPQIIEEEKTCKYCSQIGNCALYSRAVEQQMDCSSVPIVMLPKIEEETQHLKQTHLEYFSLWCLMLTLESQSKDNKKNHQNIWLMPASEMEKSGSCIGNLIRMEHVKIVCDGQYLHNFQCKHGAIPVTNLMAGDRVIVSGEERSLFALSRGYVKEINMTTVTCLLDRNLSVLPESTLFRLDQEEKNCDIDTPLGNLSKLMENTFVSKKLRDLIIDFREPQFISYLSSVLPHDAKDTVACILKGLNKPQRQAMKKVLLSKDYTLIVGMPGTGKTTTICTLVRILYACGFSVLLTSYTHSAVDNILLKLAKFKIGFLRLGQIQKVHPAIQQFTEQEICRSKSIKSLALLEELYNSQLIVATTCMGINHPIFSRKIFDFCIVDEASQISQPICLGPLFFSRRFVLVGDHQQLPPLVLNREARALGMSESLFKRLEQNKSAVVQLTVQYRMNSKIMSLSNKLTYEGKLECGSDKVANAVINLRHFKDVKLELEFYADYSDNPWLMGVFEPNNPVCFLNTDKVPAPEQVEKGGVSNVTEAKLIVFLTSIFVKAGCSPSDIGIIAPYRQQLKIINDLLARSIGMVEVNTVDKYQGRDKSIVLVSFVRSNKDGTVGELLKDWRRLNVAITRAKHKLILLGCVPSLNCYPPLEKLLNHLNSEKLIIDLPSREHESLCHILGDFQRE",binding result,binds
